From the supplement of paper PMC6755084 come the findings set out here.

Sequences and labels used below:
B1: F1*; the commonest letter at each place (parent)
chain: GAGACCGCAACTGAAAAGTTGTTATCACTTGTCGTAAGACACTTTGGATGGGTTGAAGTTCTGCACGTAGAAGCAAAAGGC

Variants of B1 are the subject of this data set. As to the kind of experiment: fraction ligated after 30 min (ligated reads / total reads); higher = more ligase activity. The note with it: with F1*sub RNA substrate (template-directed ligation), 42 °C. The procedure:
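Chip-synthesised pool of F1* ligase ribozyme variants (all single and double substitutions, single, double and triple deletions in the catalytic core and GAA bulge, plus designed variants) was transcribed with T7 and reacted as a pool with excess substrate F1*sub for 30 min at 42 C in 50 mM EPPS pH 8.5, 25 mM MgCl2. Ligated and unligated bands were separated by PAGE, barcoded by RT and deep sequenced; fraction ligated = ligated reads / total reads per variant, relative activity = FL / FL of wild type (0.826). Sequences are the DNA template of the ribozyme.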
Regarding GAGACCGCAACTGAAAAGTTGTTAACACTTGTCGTAAGACACTTTGGATTGGTTGAAGTTCTGCACGTAGAAGCAAAAGGC [T25A G50T], the fraction ligated was determined as 0.536.

For GAGACCGCAACTGAAAAGTTGTTAACACTTGTCGTAAGACATTTTGGATGGGTTGAAGTTCTGCACGTAGAAGCAAAAGGC [T25A C42T], the fraction ligated is 0.785. GAGACCGCAACTGAAAAGTTGTTAACACTTGTCGTAAGACAGTTTGGATGGGTTGAAGTTCTGCACGTAGAAGCAAAAGGC [T25A C42G]: the fraction ligated worked out at 0.553. On to GAGACCGCAACTGAAAAGTTGTTAACACTTGTCGTAAGACAATTTGGATGGGTTGAAGTTCTGCACGTAGAAGCAAAAGGC [T25A C42A], for which the fraction ligated came to 0.653. On to GAGACCGCAACTGAAAAGTTGTTAACACTTGTCGTAATACACTTTGGATGGGTTGAAGTTCTGCACGTAGAAGCAAAAGGC [T25A G38T], for which the fraction ligated was determined as 0.375.

On to GAGACCGCAACTGAAAAGTTGTTAACACTTGTCGTAAAACACTTTGGATGGGTTGAAGTTCTGCACGTAGAAGCAAAAGGC [T25A G38A], for which the fraction ligated is 0.353. Next, GAGACCGCAACTGAAAAGTTGTTAACACTTGTCGTAACACACTTTGGATGGGTTGAAGTTCTGCACGTAGAAGCAAAAGGC [T25A G38C]: 0.0835. Next, GAGACCGCAACTGAAAAGTTGTTAACACTCGTCGTAAGACACTTTGGATGGGTTGAAGTTCTGCACGTAGAAGCAAAAGGC [T25A T30C]: 0.218; GAGACCGCAACTGAAAAGTTGTTAACACTGGTCGTAAGACACTTTGGATGGGTTGAAGTTCTGCACGTAGAAGCAAAAGGC [T25A T30G]: 0.461. Next, GAGACCGCAACTGAAAAGTTGTTAACACTAGTCGTAAGACACTTTGGATGGGTTGAAGTTCTGCACGTAGAAGCAAAAGGC [T25A T30A]: 0.32; GAGACCGCAACTGAAAAGTTGTTACCCCTTGTCGTAAGACACTTTGGATGGGTTGAAGTTCTGCACGTAGAAGCAAAAGGC [T25C A27C]: 0.744; GAGACCGCAACTGAAAAGTTGTTACCTCTTGTCGTAAGACACTTTGGATGGGTTGAAGTTCTGCACGTAGAAGCAAAAGGC [T25C A27T]: 0.774. For GAGACCGCAACTGAAAAGTTGTTACCGCTTGTCGTAAGACACTTTGGATGGGTTGAAGTTCTGCACGTAGAAGCAAAAGGC [T25C A27G], the fraction ligated came to 0.796. For the variant GAGACCGCAACTGAAAAGTTGTTAACACTTGTCGTAAGACACTTTGGATGGGTTCAAGTTCTGCACGTAGAAGCAAAAGGC [T25A G55C], the fraction ligated was found to be 0.0483. Turning to GAGACCGCAACTGAAAAGTTGTTAACACTTGTCGTAAGACACTTTGGATGGGTTAAAGTTCTGCACGTAGAAGCAAAAGGC [T25A G55A], the fraction ligated worked out at 0.263. For the variant GAGACCGCAACTGAAAAGTTGTTAACACTTGTCGTAAGACACTTTGGATGGGTTTAAGTTCTGCACGTAGAAGCAAAAGGC [T25A G55T], the fraction ligated turned out to be 0.0485. Next, GAGACCGCAACTGAAAAGTTGTTACCACTTGTCGTCAGACACTTTGGATGGGTTGAAGTTCTGCACGTAGAAGCAAAAGGC [T25C A36C]: 0.771; GAGACCGCAACTGAAAAGTTGTTACCACTTGTCGTTAGACACTTTGGATGGGTTGAAGTTCTGCACGTAGAAGCAAAAGGC [T25C A36T]: 0.793. Next, GAGACCGCAACTGAAAAGTTGTTACCACTTGTCGTGAGACACTTTGGATGGGTTGAAGTTCTGCACGTAGAAGCAAAAGGC [T25C A36G]: 0.816. Regarding GAGACCGCAACTGAAAAGTTGTTAACACTTGTCCTAAGACACTTTGGATGGGTTGAAGTTCTGCACGTAGAAGCAAAAGGC [T25A G34C], the fraction ligated turned out to be 0.521.

Consider GAGACCGCAACTGAAAAGTTGTTAACACTTGTCTTAAGACACTTTGGATGGGTTGAAGTTCTGCACGTAGAAGCAAAAGGC [T25A G34T], for which the fraction ligated is 0.718. Next, GAGACCGCAACTGAAAAGTTGTTAACACTTGTCATAAGACACTTTGGATGGGTTGAAGTTCTGCACGTAGAAGCAAAAGGC [T25A G34A]: 0.724; GAGACCGCAACTGAAAAGTTGTTAACACTTGTCGTAAGAGACTTTGGATGGGTTGAAGTTCTGCACGTAGAAGCAAAAGGC [T25A C40G]: 0.256; GAGACCGCAACTGAAAAGTTGTTAACACTTGTCGTAAGAAACTTTGGATGGGTTGAAGTTCTGCACGTAGAAGCAAAAGGC [T25A C40A]: 0.134. Next, GAGACCGCAACTGAAAAGTTGTTAACACTTGTCGTAAGATACTTTGGATGGGTTGAAGTTCTGCACGTAGAAGCAAAAGGC [T25A C40T]: 0.647; GAGACCGCAACTGAAAAGTTGTTAACACTTGTCGCAAGACACTTTGGATGGGTTGAAGTTCTGCACGTAGAAGCAAAAGGC [T25A T35C]: 0.761; GAGACCGCAACTGAAAAGTTGTTAACACTTGTCGGAAGACACTTTGGATGGGTTGAAGTTCTGCACGTAGAAGCAAAAGGC [T25A T35G]: 0.764.

On to GAGACCGCAACTGAAAAGTTGTTAACACTTGTCGAAAGACACTTTGGATGGGTTGAAGTTCTGCACGTAGAAGCAAAAGGC [T25A T35A], for which the fraction ligated stood at 0.751. Turning to GAGACCGCAACTGAAAAGTTGTTAACACTTTTCGTAAGACACTTTGGATGGGTTGAAGTTCTGCACGTAGAAGCAAAAGGC [T25A G31T], the fraction ligated stood at 0.0308.

With GAGACCGCAACTGAAAAGTTGTTAACACTTATCGTAAGACACTTTGGATGGGTTGAAGTTCTGCACGTAGAAGCAAAAGGC [T25A G31A], the fraction ligated worked out at 0.0494.

As to GAGACCGCAACTGAAAAGTTGTTAACACTTCTCGTAAGACACTTTGGATGGGTTGAAGTTCTGCACGTAGAAGCAAAAGGC [T25A G31C], the fraction ligated worked out at 0.034. Next, GAGACCGCAACTGAAAAGTTGTTAACACTTGTCGTAAGACACATTGGATGGGTTGAAGTTCTGCACGTAGAAGCAAAAGGC [T25A T43A]: 0.463; GAGACCGCAACTGAAAAGTTGTTAACACTTGTCGTAAGACACGTTGGATGGGTTGAAGTTCTGCACGTAGAAGCAAAAGGC [T25A T43G]: 0.624; GAGACCGCAACTGAAAAGTTGTTAACACTTGTCGTAAGACACCTTGGATGGGTTGAAGTTCTGCACGTAGAAGCAAAAGGC [T25A T43C]: 0.286.
